Measured values reported in paper PMC10130016, “Millisecond cryo-trapping by the spitrobot crystal plunger simplifies time-resolved crystallography” (Nature Communications, 2023).

Target: T1, Salmonella typhimurium tryptophan synthase TrpB subunit (Salmonella typhimurium, UniProt P0A2K1 1-397, pyridoxal 5'-phosphate (PLP) as internal aldimine; Lys87 named in the active site)
T1 construct: Tryptophan synthase beta chain (TrpB), Salmonella typhimurium; also called TS β-subunit
T1 sequence: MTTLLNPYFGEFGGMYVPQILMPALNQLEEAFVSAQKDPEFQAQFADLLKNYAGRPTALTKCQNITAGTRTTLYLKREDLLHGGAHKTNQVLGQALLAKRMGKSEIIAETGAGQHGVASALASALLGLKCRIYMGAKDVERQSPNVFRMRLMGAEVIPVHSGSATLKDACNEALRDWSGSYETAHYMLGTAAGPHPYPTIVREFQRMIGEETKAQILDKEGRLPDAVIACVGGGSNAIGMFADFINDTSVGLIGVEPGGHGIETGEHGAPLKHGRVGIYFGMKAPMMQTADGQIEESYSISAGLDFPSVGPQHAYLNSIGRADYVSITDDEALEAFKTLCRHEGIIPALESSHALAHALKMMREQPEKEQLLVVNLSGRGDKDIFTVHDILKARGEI
Assay: crystal structure; TrpAB complex purified together; crystals from 17% (w/v) PEG 300, 0.1 M Tris-HCl pH 7.5, 20 mM cesium chloride, 18 °C, hanging drop; space group C 2, one TrpA and one TrpB in the asymmetric unit; cryo-trapped 0, 20, 25 and 30 s after LAMA mixing with indole, serine and G3P
Conditions: both partners purified

B1: Salmonella typhimurium tryptophan synthase TrpA subunit (enzyme)
chain: MERYENLFAQLNDRREGAFVPFVTLGDPGIEQSLKIIDTLIDAGADALELGVPFSDPLADGPTIQNANLRAFAAGVTPAQCFEMLALIREKHPTIPIGLLMYANLVFNNGIDAFYARCEQVGVDSVLVADVPVEESAPFRQAALRHNIAPIFICPPNADDDLLRQVASYGRGYTYLLSRSGVTGAENRGALPLHHLIEKLKEYHAAPALQGFGISSPEQVSAAVRAGAAGAISGSAIVKIIEKNLASPKQMLAELRSFVSAMKAASRA
notes: Tryptophan synthase alpha chain (TrpA), Salmonella typhimurium; also called TS alpha subunit
binding result: binds
